The assay addresses T1, hRad51 (human, UniProt Q06609 1-339).
T1 sequence (looked up): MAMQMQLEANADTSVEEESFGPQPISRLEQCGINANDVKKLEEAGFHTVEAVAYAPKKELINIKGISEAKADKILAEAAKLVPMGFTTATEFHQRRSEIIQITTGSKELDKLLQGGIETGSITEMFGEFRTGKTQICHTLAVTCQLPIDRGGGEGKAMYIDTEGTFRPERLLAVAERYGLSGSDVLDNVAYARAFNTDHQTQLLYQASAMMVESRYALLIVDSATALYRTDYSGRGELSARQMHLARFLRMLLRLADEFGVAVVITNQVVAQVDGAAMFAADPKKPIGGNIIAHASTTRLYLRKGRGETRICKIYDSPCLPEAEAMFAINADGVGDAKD
Nature of the assay: pull-down.

B1: GST-BRC3/4 (domain or fragment, human, UniProt P51587 1409-1596, looked up)
chain: LTATKTEQNIKDFETSDTFFQTASGKNISVAKESFNKIVNFFDQKPEELHNFSLNSELHSDIRKNKMDILSYEETDIVKHKILKESVPVGTGNQLVTFQGQPERDEKIKEPTLLGFHTASGKKVKIAKESLDKVKNLFDEKEQGTSEITSFSHQWAKTLKYREACKDLELACETIEITAAPKCKEMQN
With B1, the binding result was “binds”.

Values taken from article PMC2077811 (The Journal of biological chemistry, 2006).
